The values that follow come from patent US9988429B2, “Glucagon analogues” (Zealand Pharma A/S, priority 2013, dated 2018).

Starred links: 1 amine or outer side, 2 acyl side, 3 side chain; linkers in the order of their positions; H or OH if unused. Non-standard residues stand in square brackets, D forms with d. Groups on a side chain read outwards from the residue. *: point of attachment. γGlu = O=C(O)[C@H](CCC(=O)[*:2])N[*:1]; Palmitoyl = CCCCCCCCCCCCCCCC(=O)*; NMeS = CN[C@@H](CO)C(=O)O; Ac4c = NC1(C(=O)O)CCC1; Ac3c = NC1(C(=O)O)CC1

What all share (assay): cell-based or functional assay
Test [1] deals with T1, endogenous GLP-1 receptor of a murine insulinoma cell line (murine, UniProt O35659 22-463).
T1 sequence (looked up): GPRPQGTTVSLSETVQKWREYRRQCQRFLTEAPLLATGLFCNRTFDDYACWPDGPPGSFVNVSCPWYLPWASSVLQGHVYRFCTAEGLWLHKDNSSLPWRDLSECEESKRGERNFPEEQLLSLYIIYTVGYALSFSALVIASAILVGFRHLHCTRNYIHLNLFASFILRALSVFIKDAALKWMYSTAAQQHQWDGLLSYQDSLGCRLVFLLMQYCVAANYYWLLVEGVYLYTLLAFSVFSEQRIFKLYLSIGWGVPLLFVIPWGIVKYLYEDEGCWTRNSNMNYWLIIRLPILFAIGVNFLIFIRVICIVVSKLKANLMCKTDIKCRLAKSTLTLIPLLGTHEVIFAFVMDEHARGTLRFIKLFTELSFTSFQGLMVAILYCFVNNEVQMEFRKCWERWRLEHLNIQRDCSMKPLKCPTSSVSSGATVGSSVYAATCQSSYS

In test [2] the target is endogenous glucagon receptor of primary rat hepatocytes (rat, UniProt P30082 27-485).
endogenous glucagon receptor of primary rat hepatocytes, sequence (P30082 27-485): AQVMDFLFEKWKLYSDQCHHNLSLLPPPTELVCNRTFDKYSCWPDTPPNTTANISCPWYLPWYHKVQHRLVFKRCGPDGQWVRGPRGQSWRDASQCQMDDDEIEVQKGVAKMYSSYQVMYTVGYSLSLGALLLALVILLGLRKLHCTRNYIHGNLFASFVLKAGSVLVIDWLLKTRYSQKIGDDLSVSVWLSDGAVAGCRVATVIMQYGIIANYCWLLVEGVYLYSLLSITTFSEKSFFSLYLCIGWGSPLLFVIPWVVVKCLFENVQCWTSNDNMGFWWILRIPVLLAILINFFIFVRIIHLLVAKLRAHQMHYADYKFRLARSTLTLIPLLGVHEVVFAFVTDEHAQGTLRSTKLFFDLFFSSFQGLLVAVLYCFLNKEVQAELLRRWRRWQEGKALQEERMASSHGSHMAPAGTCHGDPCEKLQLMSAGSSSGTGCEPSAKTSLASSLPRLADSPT
Test [3] has as its target human glucagon receptor (Glucagon-R) (human, UniProt P47871 26-477).
The target of test [4] is human glucagon-like peptide 1 receptor (GLP-1R) (human, UniProt P43220 24-463).

human glucagon receptor (Glucagon-R), sequence (P47871 26-477): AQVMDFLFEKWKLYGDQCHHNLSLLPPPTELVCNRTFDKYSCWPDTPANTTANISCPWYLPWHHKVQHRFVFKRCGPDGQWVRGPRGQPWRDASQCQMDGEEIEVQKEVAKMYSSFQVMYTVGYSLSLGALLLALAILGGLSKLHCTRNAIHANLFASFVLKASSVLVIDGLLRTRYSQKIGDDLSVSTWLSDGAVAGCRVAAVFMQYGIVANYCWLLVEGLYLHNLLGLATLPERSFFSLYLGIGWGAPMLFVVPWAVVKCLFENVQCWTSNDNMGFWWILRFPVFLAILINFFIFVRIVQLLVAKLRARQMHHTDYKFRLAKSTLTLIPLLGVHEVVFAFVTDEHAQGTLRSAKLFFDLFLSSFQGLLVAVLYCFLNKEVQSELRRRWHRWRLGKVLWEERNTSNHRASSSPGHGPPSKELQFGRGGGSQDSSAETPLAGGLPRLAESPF

B1: Compound 9: H-H-Ac4c-HGTFTSDYSKYLDS-K(Hexadecanoyl-isoGlu)-AAHDFVEWLLSA-NH2 (peptide)
peptide: H-H[Ac4c]HGTFTSDYSKYLDSK([γGlu-Palmitoyl])AAHDFVEWLLSA-NH2
SMILES: CCCCCCCCCCCCCCCC(=O)N[C@@H](CCC(=O)NCCCC[C@H](NC(=O)[C@H](CO)NC(=O)[C@H](CC(=O)O)NC(=O)[C@H](CC(C)C)NC(=O)[C@H](Cc1ccc(O)cc1)NC(=O)[C@H](CCCCN)NC(=O)[C@H](CO)NC(=O)[C@H](Cc1ccc(O)cc1)NC(=O)[C@H](CC(=O)O)NC(=O)[C@H](CO)NC(=O)[C@@H](NC(=O)[C@H](Cc1ccccc1)NC(=O)[C@@H](NC(=O)CNC(=O)[C@H](Cc1c[nH]cn1)NC(=O)C1(NC(=O)[C@@H](N)Cc2c[nH]cn2)CCC1)[C@@H](C)O)[C@@H](C)O)C(=O)N[C@@H](C)C(=O)N[C@@H](C)C(=O)N[C@@H](Cc1c[nH]cn1)C(=O)N[C@@H](CC(=O)O)C(=O)N[C@@H](Cc1ccccc1)C(=O)N[C@H](C(=O)N[C@@H](CCC(=O)O)C(=O)N[C@@H](Cc1c[nH]c2ccccc12)C(=O)N[C@@H](CC(C)C)C(=O)N[C@@H](CC(C)C)C(=O)N[C@@H](CO)C(=O)N[C@@H](C)C(N)=O)C(C)C)C(=O)O
Regarding B1, the “EC50 [nM] (cAMP in murine insulinoma cell line)” value in test [1] was found to be 0.21 nM. In test [2], the “EC50 [nM] (inhibition of glycogen synthesis rate in primary rat hepatocytes)” value was 0.07 nM. Moreover, in test [3], the “EC50 hGCGR CHO-K1 [nM] (cAMP, AlphaScreen)” value (“EC50 hGCGR CHO-K1 [nM]” below) amounted to 0.2 nM. Moreover, the “EC50 hGLP-1R CHO-K1 [nM] (cAMP, AlphaScreen)” value (from here on “EC50 hGLP-1R CHO-K1 [nM]”) in test [4] was determined as 0.33 nM.

B2: Compound 2: H-H-NMeSer-QGTFTSDYSKYLDS-K(Hexadecanoyl-isoGlu)-AAHDFVEWLLSA-NH2 (peptide)
peptide: H-H[NMeS]QGTFTSDYSKYLDSK([γGlu-Palmitoyl])AAHDFVEWLLSA-NH2
SMILES: CCCCCCCCCCCCCCCC(=O)N[C@@H](CCC(=O)NCCCC[C@H](NC(=O)[C@H](CO)NC(=O)[C@H](CC(=O)O)NC(=O)[C@H](CC(C)C)NC(=O)[C@H](Cc1ccc(O)cc1)NC(=O)[C@H](CCCCN)NC(=O)[C@H](CO)NC(=O)[C@H](Cc1ccc(O)cc1)NC(=O)[C@H](CC(=O)O)NC(=O)[C@H](CO)NC(=O)[C@@H](NC(=O)[C@H](Cc1ccccc1)NC(=O)[C@@H](NC(=O)CNC(=O)[C@H](CCC(N)=O)NC(=O)[C@H](CO)N(C)C(=O)[C@@H](N)Cc1c[nH]cn1)[C@@H](C)O)[C@@H](C)O)C(=O)N[C@@H](C)C(=O)N[C@@H](C)C(=O)N[C@@H](Cc1c[nH]cn1)C(=O)N[C@@H](CC(=O)O)C(=O)N[C@@H](Cc1ccccc1)C(=O)N[C@H](C(=O)N[C@@H](CCC(=O)O)C(=O)N[C@@H](Cc1c[nH]c2ccccc12)C(=O)N[C@@H](CC(C)C)C(=O)N[C@@H](CC(C)C)C(=O)N[C@@H](CO)C(=O)N[C@@H](C)C(N)=O)C(C)C)C(=O)O
In the case of B2, the “EC50 [nM] (cAMP in murine insulinoma cell line)” value in test [1] worked out at 0.52 nM. The “EC50 [nM] (inhibition of glycogen synthesis rate in primary rat hepatocytes)” value in test [2] amounted to 5.4 nM. For the same molecule, the “EC50 hGCGR CHO-K1 [nM]” value in test [3] is 0.24 nM. In addition, the “EC50 hGLP-1R CHO-K1 [nM]” value in test [4] was 0.92 nM.

B3: Compound 14: H-H-Ac4c-QGTFTSDYSKYLDE-K(Hexadecanoyl-isoGlu)-AAKDFIEWLESA-NH2 (peptide)
peptide: H-H[Ac4c]QGTFTSDYSKYLDEK([γGlu-Palmitoyl])AAKDFIEWLESA-NH2
SMILES: CCCCCCCCCCCCCCCC(=O)N[C@@H](CCC(=O)NCCCC[C@H](NC(=O)[C@H](CCC(=O)O)NC(=O)[C@H](CC(=O)O)NC(=O)[C@H](CC(C)C)NC(=O)[C@H](Cc1ccc(O)cc1)NC(=O)[C@H](CCCCN)NC(=O)[C@H](CO)NC(=O)[C@H](Cc1ccc(O)cc1)NC(=O)[C@H](CC(=O)O)NC(=O)[C@H](CO)NC(=O)[C@@H](NC(=O)[C@H](Cc1ccccc1)NC(=O)[C@@H](NC(=O)CNC(=O)[C@H](CCC(N)=O)NC(=O)C1(NC(=O)[C@@H](N)Cc2c[nH]cn2)CCC1)[C@@H](C)O)[C@@H](C)O)C(=O)N[C@@H](C)C(=O)N[C@@H](C)C(=O)N[C@@H](CCCCN)C(=O)N[C@@H](CC(=O)O)C(=O)N[C@@H](Cc1ccccc1)C(=O)N[C@H](C(=O)N[C@@H](CCC(=O)O)C(=O)N[C@@H](Cc1c[nH]c2ccccc12)C(=O)N[C@@H](CC(C)C)C(=O)N[C@@H](CCC(=O)O)C(=O)N[C@@H](CO)C(=O)N[C@@H](C)C(N)=O)[C@@H](C)CC)C(=O)O
Regarding B3, in test [1], the “EC50 [nM] (cAMP in murine insulinoma cell line)” value stood at 0.13 nM. Besides, the “EC50 [nM] (inhibition of glycogen synthesis rate in primary rat hepatocytes)” value in test [2] came to 0.06 nM. Besides, in test [3], the “EC50 hGCGR CHO-K1 [nM]” value stood at 18.3 nM. Moreover, the “EC50 hGLP-1R CHO-K1 [nM]” value in test [4] is 0.68 nM.

B4: Compound 7: H-H-DAla-HGTFTSDYSKYLDS-K(Hexadecanoyl-isoGlu)-AAHDFVEWLLSA-NH2 (peptide)
peptide: H-H[dA]HGTFTSDYSKYLDSK([γGlu-Palmitoyl])AAHDFVEWLLSA-NH2
SMILES: CCCCCCCCCCCCCCCC(=O)N[C@@H](CCC(=O)NCCCC[C@H](NC(=O)[C@H](CO)NC(=O)[C@H](CC(=O)O)NC(=O)[C@H](CC(C)C)NC(=O)[C@H](Cc1ccc(O)cc1)NC(=O)[C@H](CCCCN)NC(=O)[C@H](CO)NC(=O)[C@H](Cc1ccc(O)cc1)NC(=O)[C@H](CC(=O)O)NC(=O)[C@H](CO)NC(=O)[C@@H](NC(=O)[C@H](Cc1ccccc1)NC(=O)[C@@H](NC(=O)CNC(=O)[C@H](Cc1c[nH]cn1)NC(=O)[C@@H](C)NC(=O)[C@@H](N)Cc1c[nH]cn1)[C@@H](C)O)[C@@H](C)O)C(=O)N[C@@H](C)C(=O)N[C@@H](C)C(=O)N[C@@H](Cc1c[nH]cn1)C(=O)N[C@@H](CC(=O)O)C(=O)N[C@@H](Cc1ccccc1)C(=O)N[C@H](C(=O)N[C@@H](CCC(=O)O)C(=O)N[C@@H](Cc1c[nH]c2ccccc12)C(=O)N[C@@H](CC(C)C)C(=O)N[C@@H](CC(C)C)C(=O)N[C@@H](CO)C(=O)N[C@@H](C)C(N)=O)C(C)C)C(=O)O
On to B4, for which, in test [1], the “EC50 [nM] (cAMP in murine insulinoma cell line)” value turned out to be 0.3 nM. For the same molecule, the “EC50 [nM] (inhibition of glycogen synthesis rate in primary rat hepatocytes)” value in test [2] came out at 0.28 nM. In addition, in test [3], the “EC50 hGCGR CHO-K1 [nM]” value turned out to be 0.6 nM. Further, in test [4], the “EC50 hGLP-1R CHO-K1 [nM]” value came out at 0.35 nM.

B5: Compound 13: H-HPQGTFTSDYSKYLDE-K(Hexadecanoyl-isoGlu)-AAKDFIEWLESA-NH2 (peptide)
peptide: H-HPQGTFTSDYSKYLDEK([γGlu-Palmitoyl])AAKDFIEWLESA-NH2
SMILES: CCCCCCCCCCCCCCCC(=O)N[C@@H](CCC(=O)NCCCC[C@H](NC(=O)[C@H](CCC(=O)O)NC(=O)[C@H](CC(=O)O)NC(=O)[C@H](CC(C)C)NC(=O)[C@H](Cc1ccc(O)cc1)NC(=O)[C@H](CCCCN)NC(=O)[C@H](CO)NC(=O)[C@H](Cc1ccc(O)cc1)NC(=O)[C@H](CC(=O)O)NC(=O)[C@H](CO)NC(=O)[C@@H](NC(=O)[C@H](Cc1ccccc1)NC(=O)[C@@H](NC(=O)CNC(=O)[C@H](CCC(N)=O)NC(=O)[C@@H]1CCCN1C(=O)[C@@H](N)Cc1c[nH]cn1)[C@@H](C)O)[C@@H](C)O)C(=O)N[C@@H](C)C(=O)N[C@@H](C)C(=O)N[C@@H](CCCCN)C(=O)N[C@@H](CC(=O)O)C(=O)N[C@@H](Cc1ccccc1)C(=O)N[C@H](C(=O)N[C@@H](CCC(=O)O)C(=O)N[C@@H](Cc1c[nH]c2ccccc12)C(=O)N[C@@H](CC(C)C)C(=O)N[C@@H](CCC(=O)O)C(=O)N[C@@H](CO)C(=O)N[C@@H](C)C(N)=O)[C@@H](C)CC)C(=O)O
Consider B5, for which, in test [1], the “EC50 [nM] (cAMP in murine insulinoma cell line)” value was found to be 0.14 nM. The “EC50 [nM] (inhibition of glycogen synthesis rate in primary rat hepatocytes)” value in test [2] was found to be 4 nM. For the same molecule, the “EC50 hGCGR CHO-K1 [nM]” value in test [3] was found to be 3.19 nM. In addition, the “EC50 hGLP-1R CHO-K1 [nM]” value in test [4] is 0.21 nM.

B6: Compound 8: H-H-Ac3c-HGTFTSDYSKYLDS-K(Hexadecanoyl-isoGlu)-AAHDFVEWLLSA-NH2 (peptide)
peptide: H-H[Ac3c]HGTFTSDYSKYLDSK([γGlu-Palmitoyl])AAHDFVEWLLSA-NH2
SMILES: CCCCCCCCCCCCCCCC(=O)N[C@@H](CCC(=O)NCCCC[C@H](NC(=O)[C@H](CO)NC(=O)[C@H](CC(=O)O)NC(=O)[C@H](CC(C)C)NC(=O)[C@H](Cc1ccc(O)cc1)NC(=O)[C@H](CCCCN)NC(=O)[C@H](CO)NC(=O)[C@H](Cc1ccc(O)cc1)NC(=O)[C@H](CC(=O)O)NC(=O)[C@H](CO)NC(=O)[C@@H](NC(=O)[C@H](Cc1ccccc1)NC(=O)[C@@H](NC(=O)CNC(=O)[C@H](Cc1c[nH]cn1)NC(=O)C1(NC(=O)[C@@H](N)Cc2c[nH]cn2)CC1)[C@@H](C)O)[C@@H](C)O)C(=O)N[C@@H](C)C(=O)N[C@@H](C)C(=O)N[C@@H](Cc1c[nH]cn1)C(=O)N[C@@H](CC(=O)O)C(=O)N[C@@H](Cc1ccccc1)C(=O)N[C@H](C(=O)N[C@@H](CCC(=O)O)C(=O)N[C@@H](Cc1c[nH]c2ccccc12)C(=O)N[C@@H](CC(C)C)C(=O)N[C@@H](CC(C)C)C(=O)N[C@@H](CO)C(=O)N[C@@H](C)C(N)=O)C(C)C)C(=O)O
Turning to B6, the “EC50 [nM] (cAMP in murine insulinoma cell line)” value in test [1] is 0.24 nM. For the same molecule, the “EC50 [nM] (inhibition of glycogen synthesis rate in primary rat hepatocytes)” value in test [2] was determined as 1.18 nM. The “EC50 hGCGR CHO-K1 [nM]” value in test [3] amounted to 1.82 nM. In addition, the “EC50 hGLP-1R CHO-K1 [nM]” value in test [4] was 0.24 nM.

B7: Compound 10: H-H-Abu-QGTFTSDYSKYLDE-K(Hexadecanoyl-isoGlu)-AAKDFIEWLESA-NH2 (peptide)
peptide: HTQGTFTSDYSKYLDEKAAKDFIEWLESA
modifications: position 2 is Abu ((S)-2-aminobutyric acid); Lys17 side chain conjugated to hexadecanoyl-isoGlu; C-terminal amide (NH2)
B7: the “EC50 [nM] (cAMP in murine insulinoma cell line)” value in test [1] was 0.09 nM. In addition, in test [2], the “EC50 [nM] (inhibition of glycogen synthesis rate in primary rat hepatocytes)” value was found to be 2.75 nM. In test [3], the “EC50 hGCGR CHO-K1 [nM]” value is 0.1 nM. In test [4], the “EC50 hGLP-1R CHO-K1 [nM]” value came out at 0.27 nM.
